Measurements reported in patent US20240343811A1 (SHANDONG SIMCERE BIOPHARMACUTICAL, published 2024).

T1: human CD16b (NA2), full length, on FlpinCHO cells (human, UniProt O75015 17-200)
T1 construct: also called FlpinCHO-human CD16b (NA2)
T1 chain: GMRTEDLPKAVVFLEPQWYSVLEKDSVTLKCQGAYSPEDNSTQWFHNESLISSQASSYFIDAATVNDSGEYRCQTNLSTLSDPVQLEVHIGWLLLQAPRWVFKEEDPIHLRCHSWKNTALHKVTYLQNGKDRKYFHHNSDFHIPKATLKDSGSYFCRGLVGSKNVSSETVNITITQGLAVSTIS

T2: human CD16b (NA1), full length, on FlpinCHO cells (human, UniProt O75015 17-200)
T2 construct: also called FlpinCHO-human CD16b (NA1)
T2 chain: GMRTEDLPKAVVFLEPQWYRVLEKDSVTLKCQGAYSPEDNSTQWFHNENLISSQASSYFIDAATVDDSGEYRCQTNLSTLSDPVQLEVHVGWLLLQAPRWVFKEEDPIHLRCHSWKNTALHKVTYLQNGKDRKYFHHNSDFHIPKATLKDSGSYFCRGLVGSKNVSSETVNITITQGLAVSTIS


Experiments:
[1] = biological target: T3, human CD16a (158V), full length, on cells (human, UniProt P08637 17-254); assay: FACS, biotinylated antibody
T3 construct: also used as target for the bought Jurkat-NFAT reporter line stably expressing human CD16a (158V); also called FlpinCHO-human CD16a (158V); FlpinCHO-CD16a (158V)
Procedure: (§1) The medium was aspirated, and the cells were washed twice with a PBS buffer and then digested with trypsin. After the digestion was terminated, the cells were washed twice with the PBS buffer. The cells were counted, and then the cell pellet was resuspended with a [PBS+2% (w/w) BSA] blocking solution to 2×10⁶ cells/ml, and added to a 96-well FACS reaction plate at 50 μl/well. […] 50 μl/well of the antibody to be detected was added at different concentrations, and incubated on ice for 1 hour. […] The mixture was centrifuged and washed 5 times with PBS, and FACS (FACS Canto II, purchased from BD Company) was used for detection and result analysis. Data analysis was performed by software (CellQuest) to obtain the mean fluorescence intensity (MFI) of the cells. Then, software (GraphPad Prism8) was used for analysis, data fitting and EC50 value calculation.
(§2) An antibody to be detected was labeled in advance according to the instructions of a biotin labeling kit (EZ-Link™ NHS-PEG4 Biotinylation Kit, purchased from Thermofisher Scientific, catalog number: 21455). […] Detection was performed according to the method of Example 3.1, wherein the biotinylated antibody was detected with fluorescein APC-labeled Streptavidin (High Concentration) (purchased from Biolegend, catalog number: 405243).

[2] = biological target: T4, human CD16a (158F), full length, on FlpinCHO cells (human, UniProt P08637 17-254); assay: FACS, biotinylated antibody
Procedure: as §1, §2

[3] = biological target: T1, human CD16b (NA2), full length, on …; assay: FACS on FlpinCHO cells
Procedure: as §1, with “The required cells were scale-up cultured in a T-75 cell culture flask to the logarithmic growth phase. The medium” for “The medium”
(§3) The binding of an antibody to be detected to FlpinCHO-human CD16b cells was detected according to the method of Example 3.1.

[4] = biological target: T2, human CD16b (NA1), full length, on …; assay: FACS on FlpinCHO cells
Procedure: as §1, with “The required cells were scale-up cultured in a T-75 cell culture flask to the logarithmic growth phase. The medium” for “The medium”
as §3

[5] = biological target: T3, human CD16a (158V), full length, on …; assay: FACS, biotinylated antibody, +10 mg/mL human immunoglobulin
Procedure: as §1, §2

[6] = biological target: T4, human CD16a (158F), full length, on …; assay: as above
Procedure: as §1, §2

[7] = biological target: T5, CD16 on primary human NK cells (human, UniProt P08637 17-254); assay: FACS on human NK cells
T5 construct: whole, on cells; also called resting NK cells
Procedure: as §1, with “The required cells were scale-up cultured in a T-75 cell culture flask to the logarithmic growth phase. The medium” for “The medium”
The binding of an antibody to be detected to freshly prepared human NK cells (Milestone Biotechnologies, catalog number: PB56-N-Custom) was detected according to the method of Example 3.1.

[8] = biological target: T3, human CD16a (158V), full length, on …; assay: FACS on FlpinCHO cells
Procedure: as §1, with “The required cells were scale-up cultured in a T-75 cell culture flask to the logarithmic growth phase. The medium” for “The medium”

[9] = biological target: T4, human CD16a (158F), full length, on …; assay: FACS on FlpinCHO cells
Procedure: as §1, with “The required cells were scale-up cultured in a T-75 cell culture flask to the logarithmic growth phase. The medium” for “The medium”

Human CD16a (158V)-his = biological target: T6, Human CD16a (158V)-his (human); assay: SPR (Biacore), antibody captured on Protein A
T6 construct: entry holds ECD, AVI tag, linker and His tag
Procedure: (§4) A sample buffer and a running buffer were HBS-EP+ (10 mM HEPES, 150 mM NaCl, 3 mM EDTA and 0.05% surfactant P20) (GE Healthcare; BR-1006-69). The flow-through cell was set to 25° C. The sample block was set to 16° C. Both were pretreated with the running buffer. In each cycle, an antibody to be detected was first captured with a Protein A chip, and then a single concentration of CD16 antigen protein was injected. The binding and dissociation processes of the antibody and the antigen protein were recorded, and finally Glycine pH 1.5 (GE Healthcare; BR-1003-54) was used to complete chip regeneration. Binding was measured by injecting different concentrations of recombinant human CD16-ECD his proteins in a solution for 240 s with a flow rate of 30 μL/min, wherein a total of 5 concentrations were prepared by using 200 nM as a starting concentration (see the detailed results for the actual concentration in the test) and performing a 1:1 dilution. The dissociation phase was monitored for up to 600 s and was triggered by switching from a sample solution to a running buffer. The surface was regenerated by washing with a 10 mM glycine solution (pH 1.5) for 30 s at a flow rate of 30 μL/min. Bulk refractive index difference was corrected by subtracting the response obtained from the goat anti-human Fc surface. Blank injection was also subtracted (=double reference). For calculation of apparent KD and other kinetic parameters, Langmuir 1:1 model was used.

Human CD16a (158F)-his = biological target: T7, Human CD16a (158F)-his (human); assay: SPR (Biacore), antibody captured on Protein A
T7 construct: entry holds ECD, AVI tag, linker and His tag
Procedure: as §4

[10] = biological target: T3, human CD16a (158V), full length, on …; assay: cell-based or functional assay

EC50 [1] [nM]	Maximum mean fluorescence intensity [1]	EC50 [2] [nM]	Maximum mean fluorescence intensity [2]	Maximum mean fluorescence intensity [3]	binding result [3]	EC50 [4] [nM]	Maximum mean fluorescence intensity [4]	EC50 [5] [nM]	Maximum mean fluorescence intensity [5]	EC50 [6] [nM]	Maximum mean fluorescence intensity [6]	EC50 [8] [nM]	Maximum mean fluorescence intensity [8]	EC50 [9] [nM]	Maximum mean fluorescence intensity [9]	Kd (Human CD16a (158V)-his) [nM]	koff (Human CD16a (158V)-his) [s⁻¹]	kon (Human CD16a (158V)-his) [M⁻¹ s⁻¹]	Kd (Human CD16a (158F)-his) [nM]	Binder	further results
0.22	5970	0.24	4160	113	no binding (tested: 100 nM)	0.35	52900	0.85	7900	0.87	5520	0.32	5970	0.25	5190	22.7	0.00249	110000	67.2	VHH07 VHH-Fc antibody (Fc fusion) EVQLVESGGGLVQAGGSLRLSCVASRSTLTTYAVRWYRQAPGKQREWVAFISVDGKTNYPDSVKGRFIVSRDNAKNTVYLQMNSLKPEDTADYICRAGGQYWGQGTQVTVSSEPKSSDKTHTCPPCPAPEFEGGPSVFLFPPKPKDTLMISRTPEVTCVVVAVSHEDPEVKFNWYVDGVEVHNAKTKPREEQYNSTYRVVSVLTVLHQDWLNGKEYKCKVSNKALPAPIEKTISKAKGQPREPQVYTLPPSREEMTKNQVSLTCLVKGFYPSDIAVEWESNGQPENNYKTTPPVLDSDGSFFLYSKLTVDKSRWQQGNVFSCSVMHEALHNHYTQKSLSLSPGK	EC50 [7]: 0.22 nM; Maximum mean fluorescence intensity [7]: 2330; koff (Human CD16a (158F)-his): 0.00451 s⁻¹; kon (Human CD16a (158F)-his): 67200 M⁻¹ s⁻¹; EC50, activation activity for Jurkat cell [10]: 0.02 nM; Maximum fluorescence value [10]: 174000
0.71	5660	0.85	3940	149	no binding (tested: 100 nM)	0.18	38600	1.24	8840	1.08	6060	0.81	4710	0.56	4240	22.1	0.00266	120000	80.5	VHH08 VHH-Fc antibody (Fc fusion) EVQVVESGGGLVQAGGSLRLSCVASRSTLSTYAVRWYRQAPGNQREWVAFISVDGNTNYPDSVKGRFIVSRDNAKNTVYLQMNSLKPEDTADYICRAGGQYWGQGTQVTVSSEPKSSDKTHTCPPCPAPEFEGGPSVFLFPPKPKDTLMISRTPEVTCVVVAVSHEDPEVKFNWYVDGVEVHNAKTKPREEQYNSTYRVVSVLTVLHQDWLNGKEYKCKVSNKALPAPIEKTISKAKGQPREPQVYTLPPSREEMTKNQVSLTCLVKGFYPSDIAVEWESNGQPENNYKTTPPVLDSDGSFFLYSKLTVDKSRWQQGNVFSCSVMHEALHNHYTQKSLSLSPGK	koff (Human CD16a (158F)-his): 0.00559 s⁻¹; kon (Human CD16a (158F)-his): 69500 M⁻¹ s⁻¹; EC50, activation activity for Jurkat cell [10]: 0.02 nM; Maximum fluorescence value [10]: 178000
0.64	7640	0.39	5140	143	no binding (tested: 100 nM)	0.3	48200	1.74	9480	1.35	6500	0.69	6240	0.47	5550	16.1	0.00178	110000	50.2	VHH09 VHH-Fc antibody (Fc fusion) EVQVVESGGGLVQAGGSLRLSCVASTSTLTTYAVRWYRQAPGKQREWVAFISVDGNTNYPDSVKGRFIVSRDNAKNTVYLQMNSLKPEDTADYICRAGGQYWGQGTQVTVSSEPKSSDKTHTCPPCPAPEFEGGPSVFLFPPKPKDTLMISRTPEVTCVVVAVSHEDPEVKFNWYVDGVEVHNAKTKPREEQYNSTYRVVSVLTVLHQDWLNGKEYKCKVSNKALPAPIEKTISKAKGQPREPQVYTLPPSREEMTKNQVSLTCLVKGFYPSDIAVEWESNGQPENNYKTTPPVLDSDGSFFLYSKLTVDKSRWQQGNVFSCSVMHEALHNHYTQKSLSLSPGK	EC50 [7]: 0.76 nM; Maximum mean fluorescence intensity [7]: 2420; koff (Human CD16a (158F)-his): 0.00309 s⁻¹; kon (Human CD16a (158F)-his): 61600 M⁻¹ s⁻¹; EC50, activation activity for Jurkat cell [10]: 0.03 nM; Maximum fluorescence value [10]: 159000
